Assay results: US11957716B2 (Immatics Biotechnologies GmbH, priority 2021, dated 2024)

Key:
[1] = test system: HLA-A*01:01, HLA-A*02:01, HLA-A*03:01, HLA-A*24:02, HLA-B*07:02, HLA-B*08:01 and HLA-B*44:02; experiment: HLA alleles the peptides bind to (Table 7); type: binding, human; details: allotype from the group HLA-A*01:01, HLA-A*02:01, HLA-A*03:01, HLA-A*24:02, HLA-B*07:02, HLA-B*08:01, HLA-B*44:02
Excerpt: However, due to similarities in binding pattern such as the relevant anchoring positions some peptides bind to more than one allele, such an overlap is most likely, but not limited to, HLA-A*01 binding peptides also binding to HLA-B*15, HLA-A*03 binding peptides also binding to HLA-A*11, HLA-B*07 binding peptides also binding to HLA-B*35 and HLA-B*51.

HLA-A*02:01 = HLA-A*02:01 (Homo sapiens, UniProt P04439, D140Y/D185E/D98H/E176V/E277Q/G131W/G231S/I119V/I121R/I166T/I218V/L300P/L318F/N151K/N90K/P208A/P217A/Q86G/Q94H/R138H/R169H/T345S); experiment: MHC binding assay, UV-ligand exchange ELISA; details: peptide exchange yield, binding to HLA-A*02:01
HLA-B*44:05 = HLA-B*44:05 (Homo sapiens, UniProt P01889, A223V/A65T/A93T/A95T/D201E/D98Y/E176V/E187L/E204Q/E69K/G107R/H137Y/K202T/L105A/L119I/N104T/N87E/Q56L/Q94N/R106L/R155S/R180D/S101N/S121R/S35A/S48T/T118I/V36M/W191S/Y91S); experiment: MHC binding assay, UV-ligand exchange ELISA; details: peptide exchange yield, binding to HLA-B*44:05
HLA-A*01:01 = HLA-A*01:01 (Homo sapiens, UniProt P04439, A114D/A174V/A182V/D101N/D185E/E176A/E190D/L180R/Q94H/R68K/S129P/T187R/V100A/V91M/W191G); experiment: MHC binding assay, UV-ligand exchange ELISA; details: peptide exchange yield, binding to HLA-A*01:01
HLA-A*24:02 = HLA-A*24:02 (Homo sapiens, UniProt P04439, D101N/D140Y/D185E/E176V/E190D/F33S/G103R/G107R/I119L/I121M/I306V/K335N/L105A/L180Q/L300P/N151K/N90K/Q86E/Q94H/R106L/R138H/R89G/T104I/T345S/V100E/W191G/Y123F); experiment: MHC binding assay, UV-ligand exchange ELISA; details: peptide exchange yield, binding to HLA-A*24:02

Row | Substance | Peptide exchange (HLA-A*02:01) | Peptide exchange (HLA-B*44:05) | Binders (HLA alleles the peptides according to the invention bind to) [1] | other results
1 | 4 (IQAPALLKV; listed as Homo sapiens) [compound 4] | ++++ (≥75% = ++++) |  | HLA-A*02:01 | 
2 | 5 (METADRPEW; listed as Homo sapiens) [compound 5] |  | ++++ (75% = ++++) |  | 
3 | 9 (LLGVVSHSV; listed as Homo sapiens) [compound 9] | ++++ (≥75% = ++++) |  | HLA-A*02:01 | 
4 | 10 (ILMILQPQL; listed as Homo sapiens) [compound 10] | ++++ (≥75% = ++++) |  | HLA-A*02:01 | 
5 | 11 (TEIGTVIKLF; listed as Homo sapiens) [compound 11] |  | ++++ (75% = ++++) |  | 
6 | 12 (RLQEGLAAL; listed as Homo sapiens) [compound 12] | ++++ (≥75% = ++++) |  | HLA-A*02:01 | 
7 | 18 (SLSKLVATV; listed as Homo sapiens) [compound 18] | ++++ (≥75% = ++++) |  | HLA-A*02:01 | 
8 | 23 (AETKQFWSA; listed as Homo sapiens) [compound 23] |  | ++++ (75% = ++++) |  | 
9 | 26 (ETNTIEFIY; listed as Homo sapiens) [compound 26] |  |  | HLA-A*01:01 | Peptide exchange (HLA-A*01:01): ++++ (≥75% = ++++)
10 | 27 (SQAKQITIW; listed as Homo sapiens) [compound 27] |  | ++++ (75% = ++++) |  | 
11 | 30 (SLKSSILFL; listed as Homo sapiens) [compound 30] | +++ (≥50% = +++) |  | HLA-A*02:01 | 
12 | 36 (KEIEAQEAA; listed as Homo sapiens) [compound 36] |  | ++++ (75% = ++++) |  | 
13 | 39 (RELGVGIAL; listed as Homo sapiens) [compound 39] |  | ++++ (75% = ++++) |  | 
14 | 42 (LLSRGILIL; listed as Homo sapiens) [compound 42] | ++++ (≥75% = ++++) |  | HLA-A*02:01 | 
15 | 45 (SLFPISLTV; listed as Homo sapiens) [compound 45] | ++++ (≥75% = ++++) |  | HLA-A*02:01 | 
16 | 48 (TEMSVSALY; listed as Homo sapiens) [compound 48] |  | ++++ (75% = ++++) |  | 
17 | 54 (ASSPVILLL; listed as Homo sapiens) [compound 54] |  |  | HLA-A*01:01 | Peptide exchange (HLA-A*01:01): ++ (≥20% = ++)
18 | 56 (DVDIHKDLY; listed as Homo sapiens) [compound 56] |  |  | HLA-A*01:01 | Peptide exchange (HLA-A*01:01): ++++ (≥75% = ++++)
19 | 57 (IIIDRILLL; listed as Homo sapiens) [compound 57] | ++++ (≥75% = ++++) |  | HLA-A*02:01 | 
20 | 58 (REQLDGATL; listed as Homo sapiens) [compound 58] |  | ++++ (75% = ++++) |  | 
21 | 60 (VSPDEVLALW; listed as Homo sapiens) [compound 60] |  |  | HLA-A*01:01 | Peptide exchange (HLA-A*01:01): ++ (≥20% = ++)
22 | 65 (NSDLFYLLL; listed as Homo sapiens) [compound 65] |  |  | HLA-A*01:01 | Peptide exchange (HLA-A*01:01): ++++ (≥75% = ++++)
23 | 68 (TVDKGELLY; listed as Homo sapiens) [compound 68] |  |  | HLA-A*01:01 | Peptide exchange (HLA-A*01:01): ++++ (≥75% = ++++)
24 | 74 (TLNVLITL; listed as Homo sapiens) [compound 74] | ++ (≥20% = ++) |  | HLA-A*02:01 | 
25 | 170 (LLDSWNILI; listed as Homo sapiens) [compound 170] | ++++ (≥75% = ++++) |  | HLA-A*02:01 | 
26 | 201 (VWILQKVNLAF; listed as Homo sapiens) [compound 201] |  |  | HLA-A*24:02 | Peptide exchange (HLA-A*24:02): +++ (50% = +++)

Further lines, with some results ahead:

Row | Peptide exchange (HLA-A*02:01) | Peptide exchange (HLA-B*44:05) | Substance | Binders (HLA alleles the peptides according to the invention bind to) [1] | other results
27 | ++++ (≥75% = ++++) |  | 82 (VLQSLQHEL; listed as Homo sapiens) [compound 82] | HLA-A*02:01 | 
28 |  | ++++ (75% = ++++) | 84 (KEFAFLEHSL; listed as Homo sapiens) [compound 84] |  | 
29 | ++ (≥20% = ++) |  | 97 (ALIVLHLSL; listed as Homo sapiens) [compound 97] | HLA-A*02:01 | 
30 | ++++ (≥75% = ++++) |  | 102 (FLLLEKGGEL; listed as Homo sapiens) [compound 102] | HLA-A*02:01 | 
31 | ++++ (≥75% = ++++) |  | 105 (LVFESVVAA; listed as Homo sapiens) [compound 105] | HLA-A*02:01 | 
32 | ++++ (≥75% = ++++) |  | 106 (GLLDAFLRL; listed as Homo sapiens) [compound 106] | HLA-A*02:01 | 
33 | +++ (≥50% = +++) |  | 108 (SLQESLPNA; listed as Homo sapiens) [compound 108] | HLA-A*02:01 | 
34 | ++++ (≥75% = ++++) |  | 113 (ALGPMAFRV; listed as Homo sapiens) [compound 113] | HLA-A*02:01 | 
35 |  | +++ (50% = +++) | 117 (GEAAAARPV; listed as Homo sapiens) [compound 117] |  | 
36 | ++++ (≥75% = ++++) |  | 118 (RLLRLIPIL; listed as Homo sapiens) [compound 118] | HLA-A*02:01 | 
37 | +++ (≥50% = +++) |  | 121 (ILVTAWKGV; listed as Homo sapiens) [compound 121] | HLA-A*02:01 | 
38 | +++ (≥50% = +++) |  | 130 (ITPDSIPSV; listed as Homo sapiens) [compound 130] | HLA-A*02:01 | 
39 |  | ++++ (75% = ++++) | 139 (EEGRIITKW; listed as Homo sapiens) [compound 139] |  | 
40 |  | +++ (50% = +++) | 141 (REVAGASAL; listed as Homo sapiens) [compound 141] |  | 
41 | ++++ (≥75% = ++++) |  | 142 (YMLEMDNSMKI; listed as Homo sapiens) [compound 142] | HLA-A*02:01 | 
42 | ++++ (≥75% = ++++) |  | 145 (HLFSVLSAI; listed as Homo sapiens) [compound 145] | HLA-A*02:01 | 
43 |  | ++++ (75% = ++++) | 147 (VEAPHLPSF; listed as Homo sapiens) [compound 147] |  | 
44 | ++++ (≥75% = ++++) |  | 153 (ALNLSRLTV; listed as Homo sapiens) [compound 153] | HLA-A*02:01 | 
45 | +++ (≥50% = +++) |  | 167 (FALGPIIKQL; listed as Homo sapiens) [compound 167] | HLA-A*02:01 | 
46 |  | ++++ (75% = ++++) | 168 (AEGPDHHSL; listed as Homo sapiens) [compound 168] |  | 
47 |  | ++++ (75% = ++++) | 181 (FDLNIGSAY; listed as Homo sapiens) [compound 181] |  | 
48 | ++++ (≥75% = ++++) |  | 188 (KLPFFTNFL; listed as Homo sapiens) [compound 188] | HLA-A*02:01 | 
49 | ++++ (≥75% = ++++) |  | 200 (GLLGTLRVL; listed as Homo sapiens) [compound 200] | HLA-A*02:01 | 
50 |  | ++++ (75% = ++++) | 206 (VEGVHFVQLL; listed as Homo sapiens) [compound 206] |  | 
51 |  | ++++ (75% = ++++) | 212 (WETRLHNLW; listed as Homo sapiens) [compound 212] |  | 
